In patent publication US20240301043A1 (Q32 BIO, published 2024):
Residue numbers refer to the chain shown, from its start. In names and notes the source's numbering stands.

B1: Exemplary anti-C3d construct 55 (antibody, mouse IgG1, kappa, V domains shown)
VH: EVQLQQSGPVLVKPGASVKMSCKASGYTFTAYYMNWVRQSHGKSLEWIGVINPYNGGTSYNQKFKGKATLTVDKSSSTAYMELNSLTSEDSAVYYCSSPYWGQGTSVTVSS
VL: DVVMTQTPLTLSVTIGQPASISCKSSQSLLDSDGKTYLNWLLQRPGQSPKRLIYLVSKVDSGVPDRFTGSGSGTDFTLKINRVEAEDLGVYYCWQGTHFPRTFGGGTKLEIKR
notes: also called Exemplary construct 55
B2: Exemplary anti-C3d construct 56 (Fab) (Fab, V domains shown)
VH: B1 VH
VL: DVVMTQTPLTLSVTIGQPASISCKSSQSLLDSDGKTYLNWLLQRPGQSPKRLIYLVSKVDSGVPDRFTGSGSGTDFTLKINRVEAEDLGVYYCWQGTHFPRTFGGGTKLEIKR
notes: also called Exemplary construct 56
B3: Exemplary anti-C3d construct 34 (antibody, mouse IgG1, kappa, V domains shown)
VH: B1 VH
VL: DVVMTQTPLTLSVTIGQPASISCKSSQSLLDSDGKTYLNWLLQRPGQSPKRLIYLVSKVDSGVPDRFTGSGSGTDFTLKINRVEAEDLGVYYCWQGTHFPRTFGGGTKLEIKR
notes: muHC2 murine IgG1 heavy chain and muLC2 murine kappa light chain; also called Exemplary construct 34
B4: Exemplary anti-C3d construct 74 (antibody, V domains shown)
VH: QVQLVQSGAEVKKPGASVKVSCKASGYTFTNYYINWVRQAPGQGLEWIGVINPYNGGTSYNQKFKGRATLTVDTSTSTAYMELSSLRSEDTAVYFCSSPYWGQGTLVTVSS
VL: DVVMTQSPLSLPVTLGQPASISCKSSQSLLDSDGKTYLNWFQQRPGQSPRRLIYLVSKLDSGVPDRFSGSGSGTDFTLKISRVEAEDVGVYYCWQGTHFPRTFGGGTKVEIK
notes: Humanized 3d8b VH4 / VK3; also called Exemplary construct 74
B5: Exemplary anti-C3d construct 76 (antibody, V domains shown)
VH: B4 VH with N55H
VL: B4 VL
notes: Humanized 3d8b VH4 N54H / VK3; also called Exemplary construct 76
B6: Exemplary anti-C3d construct 75 (antibody, V domains shown)
VH: B4 VH with I48M, A68V, L70M
VL: B4 VL
notes: Humanized 3d8b VH5 / VK3; also called Exemplary construct 75
B7: Exemplary anti-C3d construct 86 (antibody, human IgG4 S228P, kappa)
heavy: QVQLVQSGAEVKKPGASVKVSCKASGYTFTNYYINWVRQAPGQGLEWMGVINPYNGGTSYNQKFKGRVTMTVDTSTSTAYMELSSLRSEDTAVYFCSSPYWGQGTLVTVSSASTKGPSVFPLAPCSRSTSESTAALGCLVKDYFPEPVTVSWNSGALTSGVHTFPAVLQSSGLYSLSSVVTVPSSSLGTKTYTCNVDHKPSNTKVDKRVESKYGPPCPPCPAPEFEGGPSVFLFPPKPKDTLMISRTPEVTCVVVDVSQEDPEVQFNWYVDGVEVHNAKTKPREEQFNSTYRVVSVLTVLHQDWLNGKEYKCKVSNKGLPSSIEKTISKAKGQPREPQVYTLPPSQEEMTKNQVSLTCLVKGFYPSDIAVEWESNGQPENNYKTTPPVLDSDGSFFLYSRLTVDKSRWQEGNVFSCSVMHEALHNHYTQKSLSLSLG
light: DVVMTQSPLSLPVTLGQPASISCKSSQSLLDSDGKTYLNWFQQRPGQSPRRLIYLVSKLDSGVPDRFSGSGSGTDFTLKISRVEAEDVGVYYCWQGTHFPRTFGGGTKVEIKRTVAAPSVFIFPPSDEQLKSGTASVVCLLNNFYPREAKVQWKVDNALQSGNSQESVTEQDSKDSTYSLSSTLTLSKADYEKHKVYACEVTHQGLSSPVTKSFNRGEC
notes: HC1 (VH5) humanized IgG4 S228P/L235E; LC1 (Vk3) humanized kappa; also called Exemplary construct 86
B8: Exemplary anti-C3d construct 77 (antibody, V domains shown)
VH: B4 VH with I48M, N55H, A68V, L70M
VL: B4 VL
notes: Humanized 3d8b VH5 N54H / VK3; also called Exemplary construct 77
B9: Exemplary anti-C3d construct 78 (antibody, V domains shown)
VH: B4 VH with N55S
VL: B4 VL
notes: Humanized 3d8b VH4 N54S / VK3; also called Exemplary construct 78
B10: Exemplary anti-C3d construct 79 (antibody, V domains shown)
VH: B4 VH with I48M, N55S, A68V, L70M
VL: B4 VL
notes: Humanized 3d8b VH5 N54S / VK3; also called Exemplary construct 79
B11: Exemplary anti-C3d construct 93 (antibody, human IgG4 S228P, kappa, V domains shown)
VH: B4 VH with I48M, N55S, A68V, L70M
VL: DVVMTQSPLSLPVTLGQPASISCKSSQSLLDSDGKTYLNWFQQRPGQSPRRLIYLVSKLDSGVPDRFSGSGSGTDFTLKISRVEAEDVGVYYCWQGTHFPRTFGGGTKVEIKR
notes: also called Exemplary construct 93
B12: Exemplary anti-C3d construct 87 (antibody, human IgG4 S228P, kappa)
heavy: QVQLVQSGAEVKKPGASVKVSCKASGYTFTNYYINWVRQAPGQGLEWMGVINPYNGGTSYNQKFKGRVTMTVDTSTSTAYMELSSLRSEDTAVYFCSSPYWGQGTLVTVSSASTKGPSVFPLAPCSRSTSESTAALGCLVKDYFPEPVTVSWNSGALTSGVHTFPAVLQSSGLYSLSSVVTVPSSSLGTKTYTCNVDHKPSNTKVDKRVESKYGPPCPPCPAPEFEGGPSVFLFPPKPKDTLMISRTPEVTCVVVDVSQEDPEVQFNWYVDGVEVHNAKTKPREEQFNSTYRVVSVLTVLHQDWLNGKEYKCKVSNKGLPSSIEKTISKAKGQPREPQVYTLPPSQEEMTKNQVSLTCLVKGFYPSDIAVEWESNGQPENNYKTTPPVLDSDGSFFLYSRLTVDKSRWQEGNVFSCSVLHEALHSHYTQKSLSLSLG
light: B7 light
notes: also called Exemplary construct 87
B13: Exemplary Fusion Construct 99 (other)
heavy: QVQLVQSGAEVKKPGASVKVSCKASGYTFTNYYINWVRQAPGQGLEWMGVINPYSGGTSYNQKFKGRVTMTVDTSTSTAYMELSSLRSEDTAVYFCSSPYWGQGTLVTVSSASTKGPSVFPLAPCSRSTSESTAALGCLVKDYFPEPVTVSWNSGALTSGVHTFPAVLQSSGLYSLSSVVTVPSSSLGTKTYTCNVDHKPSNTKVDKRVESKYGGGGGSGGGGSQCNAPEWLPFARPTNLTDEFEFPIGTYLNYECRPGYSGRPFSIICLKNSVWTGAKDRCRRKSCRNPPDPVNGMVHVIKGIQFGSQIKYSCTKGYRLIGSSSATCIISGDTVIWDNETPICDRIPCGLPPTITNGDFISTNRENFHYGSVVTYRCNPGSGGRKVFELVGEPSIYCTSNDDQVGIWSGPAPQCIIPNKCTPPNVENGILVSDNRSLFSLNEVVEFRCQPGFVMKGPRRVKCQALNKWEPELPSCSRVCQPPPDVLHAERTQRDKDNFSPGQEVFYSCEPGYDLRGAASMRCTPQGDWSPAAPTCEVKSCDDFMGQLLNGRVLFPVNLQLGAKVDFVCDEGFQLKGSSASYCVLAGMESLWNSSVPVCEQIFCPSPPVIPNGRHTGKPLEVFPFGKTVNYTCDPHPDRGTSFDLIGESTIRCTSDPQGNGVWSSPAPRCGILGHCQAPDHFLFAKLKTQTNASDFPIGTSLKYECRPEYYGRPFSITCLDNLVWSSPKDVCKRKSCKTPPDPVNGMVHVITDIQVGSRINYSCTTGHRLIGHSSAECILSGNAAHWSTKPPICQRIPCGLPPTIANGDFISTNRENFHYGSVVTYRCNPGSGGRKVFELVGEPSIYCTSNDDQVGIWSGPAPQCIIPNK
light: B7 light
notes: Order chain, linker, modulator follows claim 321

Each binder was assayed against T1, human C3d (human, UniProt P01024 1002-1303) (assay: ELISA, human C3d coated on plate).
T1 construct: domain: C3d; also called C3d antigen
T1 sequence (P01024 1002-1303 limits assumed): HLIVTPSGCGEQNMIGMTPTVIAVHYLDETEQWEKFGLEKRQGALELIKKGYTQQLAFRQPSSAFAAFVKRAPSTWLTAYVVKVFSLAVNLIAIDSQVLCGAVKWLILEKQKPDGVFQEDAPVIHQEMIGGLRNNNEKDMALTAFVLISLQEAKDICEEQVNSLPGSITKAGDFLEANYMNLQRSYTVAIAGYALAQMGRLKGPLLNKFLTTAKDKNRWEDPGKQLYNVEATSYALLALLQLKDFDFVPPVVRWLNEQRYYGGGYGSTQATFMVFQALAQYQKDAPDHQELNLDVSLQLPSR
For B1, the EC50 was 0.24 nM. Work on B2 yielded an EC50 of 0.55 nM. In the case of B3, the EC50 is reported as 0.32 nM.

Molecular target: T1, human C3d
Assay: ELISA, human C3d coated on plate
Remark: another data set of the same source
B4 gave an EC50 of 0.017 nM. With B5 the EC50 was 0.018 nM. With B6 the EC50 was 0.029 nM. With B7 the EC50 was 0.03 nM. Work on B8 yielded an EC50 of 0.011 nM. B9 was tested, and the EC50 was 0.018 nM. B10 showed an EC50 of 0.02 nM.

Molecular target: T1, human C3d
Assay: ELISA, human C3d coated on plate
Remark: another data set of the same source
In the case of B11, the EC50 is reported as 0.02 nM. Binder B7 has an EC50 of 0.03 nM. In the case of B12, the EC50 is reported as 0.02 nM. B13 showed an EC50 of 1.54 nM.

The binders below were run against T1, human C3d (assay: SPR (Biacore 3000), human C3d amine-coupled to CM5 chip, construct as analyte).
B2 showed a Kd of 0.91 nM. In the case of B3, the Kd is reported as 0.888 nM. In the case of B4, the Kd is reported as 1.34 nM. B11 showed a Kd of 10.2 nM. Binder B6 has a Kd of 1.63 nM. B7 was tested, and the Kd was 14.7 nM. For B12, the Kd was 7.57 nM.
